Measured values taken from patent publication US8034904B2, “Anti-IGF-I receptor antibody” (Immunogen Inc., priority 2002, dated 2011).

Experiments:
[1] = tested on: Human pancreatic cancer BxPC-3 xenografts; experiment: BxPC-3 pancreatic cancer xenograft in SCID/ICR mice; type: in vivo, mouse
Experimental: Human pancreatic cancer xenografts were established in 5 week-old, female SCID/ICR mice (Taconic) by subcutaneous injections of 10^7 BxPC-3 cells in PBS (day 0). The mice bearing established tumors of 80 mm^3 were then treated with EM164 alone (13 injections of 0.8 mg/mouse, i.v., lateral tail vein, on days 12, 16, 19, 23, 26, 29, 36, 43, 50, 54, 58, 61 and 64), with gemcitabine alone (two injections of 150 mg/kg/mouse, i.p., on days 12 and 19), with a combination of gemcitabine and. EM164 following the above schedules, PBS alone, and a control antibody alone (following the same schedule as EM164) using five mice in each of the five treatment groups.

MCF-7 (breast) cells = experiment: Growth and survival of MCF-7 cells (MTT assay); type: cell-based, human
Experimental: (§1) Several human tumor cell lines were tested in serum-free conditions for their growth and survival response to IGF-I. These cell lines were treated with EM164 antibody in the presence of IGF-I, IGF-II, or serum, and their growth and survival responses were measured using an MTT assay after 2-4 days. Approximately 1500 cells were plated in a 96-well plate in regular medium with serum, which was replaced with serum-free medium the following day (either serum-free RPMI medium supplemented with transferrin and BSA, or phenol-red free medium as specified by Dufourny, B. et al., 1997, J. Biol. Chem., 272, 31163-31171). After one day of growth in serum-free medium, the cells were incubated with about 75 μL of 10 μg/mL antibody for 30 min.-3 h, followed by the addition of 25 μL of IGF-I (or IGF-II or serum) solution to obtain a final concentration of 10 ng/mL IGF-I, or 20 ng/mL IGF-II, or 0.04-10% serum. In some experiments, the cells were stimulated first with IGF-I for 15 min before the addition of EM164 antibody, or both IGF-I and EM164 antibody were added together. The cells were then allowed to grow for another 2-3 days. A solution of MTT (3-(4,5)-dimethylthiazol-2-yl)-2,5-diphenyltetrazolium bromide; 25 μL of a 5 mg/mL solution in PBS) was then added and the cells were returned to the incubator for 2-3 h. The medium was then removed and replaced by 100 μL DMSO, mixed, and the absorbance of the plate was measured at 545 nm.

[2] = target: T1, IGF-I receptor on MCF-7 cells (Homo sapiens, UniProt P08069); experiment: IGF-I displacement assay in MCF-7 cells; type: cell-based
T1 construct: human breast cancer MCF-7 cells, which expressed IGF-I receptor; endogenous in cells; host or cells: MCF-7 human breast cancer cells
Experimental: (§2) (or at 4° C.) for 1 to 2 h. […] (or at 4° C.) for 30 min to 4 h. Cells were then washed with PBS and lysed in lysis buffer containing 1% NP-40 at 4° C.

[3] = tested on: SK-N-SH (neuroblastoma) cells; experiment: Growth and survival of SK-N-SH cells (MTT assay); type: cell-based, human
Experimental: as §1

[4] = tested on: IGF-I receptor of goat fibroblast cells; experiment: Immunoprecipitation of IGF-I receptor from goat fibroblast cells; type: binding
From the text: (§3) A Western blot of the EM164 antibody immunoprecipitate was detected using a rabbit polyclonal anti-IGF-I receptor beta chain (C-terminus) antibody (Santa Cruz Biotechnology) and a goat-anti-rabbit-IgG-antibody-horseradish peroxidase conjugate, followed by washes and enhanced chemiluminescence (ECL) detection.

[5] = tested on: IGF-I receptor from cos-7 cells; experiment: Immunoprecipitation of IGF-I receptor from cos-7 cells; type: binding; conditions: cos-7 cells (African green monkey)
From the text: as §3

SK-LU-1 cells = experiment: Growth and survival of SK-LU-1 cells (MTT assay); type: cell-based, human
Experimental: as §1

[6] = tested on: RD (rhabdomyocarcoma) cells; experiment: Growth and survival of RD cells (MTT assay); type: cell-based, human
Experimental: as §1

[7] = tested on: IGF-I receptor of CHO cells; experiment: Immunoprecipitation of IGF-I receptor from CHO cells; type: binding; conditions: CHO cells (Chinese hamster)
From the text: as §3

IGF-I receptor = target: T2, IGF-I receptor (Homo sapiens, UniProt P08069); experiment: IGF-I-stimulated autophosphorylation of IGF-I receptor in MCF-7 cells (ELISA); type: cell-based; conditions: 20 μg/mL antibody 3 h; 50 ng/mL IGF-I 20 min
T2 construct: human breast cancer MCF-7 cells, which expressed IGF-I receptor; endogenous in cells; host or cells: MCF-7 human breast cancer cells
Experimental: In FIG. 4, the MCF-7 cells were grown in a 12-well plate in regular medium for 3 days, and were then treated with 20 μg/mL EM164 antibody (or anti-B4 control antibody) in serum-free medium for 3 h, followed by stimulation with 50 ng/mL IGF-I for 20 min at 37° C. The cells were then lysed in ice-cold lysis buffer containing protease and phosphatase inhibitors (50 mM HEPES buffer, pH 7.4, 1% NP-40, 1 mM sodium orthovanadate, 100 mM sodium fluoride, 10 mM sodium pyrophosphate, 2.5 mM EDTA, 10 μM leupeptin, 5 μM pepstatin, 1 mM PMSF, 5 mM benzamidine, and 5 μg/mL aprotinin). An ELISA plate was pre-coated with anti-IGF-I receptor beta chain C-terminus monoclonal antibody TC123 and was incubated with the lysate samples for 5 h at ambient temperature to capture IGF-I receptor. The wells containing the captured IGF-I receptor were then washed and incubated with biotinylated anti-phosphotyrosine antibody (PY20; 0.25 μg/mL; BD Transduction Laboratories) for 30 min, followed by washes and incubation with streptavidin-horseradish peroxidase conjugate (0.8 μg/mL) for 30 min. The wells were washed and detected with ABTS/H2O2 substrate.

Akt and Erk1/2 = experiment: IGF-I receptor signaling in MCF-7 cells (Western blots, phospho-Akt and phospho-Erk1/2); type: cell-based, human
A 431 (epidermoid) cells = experiment: Growth and survival of A 431 cells (MTT assay); type: cell-based, human
Experimental: as §1

[8] = target: T3, IGF-I receptor on NCI-H838 cells (Homo sapiens, UniProt P08069); experiment: IGF-I displacement in NCI-H838 lung cancer cells; type: cell-based; conditions: 4° C., 2 h
T3 construct: endogenous in cells; host or cells: NCI-H838 lung cancer cells
Experimental: as §2

A 549 cells = experiment: Growth and survival of A 549 cells (MTT assay); type: cell-based, human; conditions: 5-10 μg/mL EM164, 10 ng/mL IGF-I
Experimental: as §1, with “A solution of MTT (3-(4,5)-dimethylthiazol-2-yl)-2,5-diphenyltetrazolium bromide; 25 μL of a 5 mg/mL solution in PBS) was then added and the cells were returned to the incubator for 2-3 h.” left out

[9] = 5-10 μg/mL EM164, 10 ng/mL IGF-I
[10] = 5-10 μg/mL EM164, MTT or colony formation assay

B1: EM164: murine anti-IGF-I receptor monoclonal antibody, IgG1 with kappa light chain, hybridoma ATCC PTA-4457; heavy SEQ ID NO:7, light SEQ ID NO:8 (antibody)
heavy: QVQLQQSGAELVKPGASVKLSCKASGYTFTSYWMHWVKQRPGQGLEWIGEINPSNGRTNYNEKFKRKATLTVDKSSSTAYMQLSSLTSEDSAVYYFARGRPDYYGSSKWYFDVWGAGTTVTVSS
light: DVLMTQTPLSLPVSLGDQASISCRSSQSIVHSNVNTYLEWYLQKPGQSPKLLIYKVSNRFSGVPDRFSGSGSGTDFTLRISRVEAEDLGIYYCFQGSHVPPTFGGGTKLEIKR
modifications: antibody heavy chain; antibody light chain
day on which measurable tumor regrowth was seen in more than one animal ([1]; BxPC-3 xenografts): 43 days | total regression of tumor xenografts (animals) ([1]; EM164 0.8 mg/mouse i.v. x13, gemcitabine 150 mg/kg i.p. days 12 and 19, five mice per group): 4 of 5 | mean tumor volumes on day 74 in comparison with the control treatments ([1]; P=0.029 (EM164) and 0.002 (combination), two-tailed T-test): significantly smaller | growth of established BxPC-3 xenografts ([1]; another study, intraperitoneal injections): inhibited the growth | inhibition of the growth of established BxPC-3 xenografts, intraperitoneal vs intravenous administration ([1]; mouse, in vivo): equivalent inhibition | inhibition of the growth of established BxPC-3 xenografts, murine vs humanized ([1]; mouse, in vivo): equivalent inhibition | inhibition of growth and survival of MCF-7 cells over a range of serum concentrations (MCF-7 (breast) cells; 0.04-10% serum, FIG. 8): equally effective | IGF-1- or serum-stimulated growth and survival of MCF-7 cells (MCF-7 (breast) cells; FIGS. 7 and 8): strongly inhibited | % Inhibition by EM164 antibody of Growth/survival of cells in 1.25-10% serum (MCF-7 (breast) cells; MCF-7 (breast), 5-10 μg/mL EM164): 85% | Inhibition by EM164 antibody of IGF-I-stimulated growth in serum-free medium (MCF-7 (breast) cells; MCF-7 (breast), 5-10 μg/mL EM164, 10 ng/mL IGF-I): 100% | inhibition of serum-stimulated growth (MCF-7 (breast) cells; MCF-7 cells, in the presence of serum): greater than 80% | IGF-II-stimulated growth and survival of MCF-7 cells (MCF-7 (breast) cells; separate experiment): strongly inhibited | displacement of pre-bound biotinylated IGF-I ([2]; 4° C., 2 h): about 50% | displacement of pre-bound biotinylated IGF-I ([2]; 37° C., within 30 min): 90% | displacement of pre-bound biotinylated IGF-I ([2]; 37° C., within 4 h): ~100% | % Inhibition by EM164 antibody of Growth/survival of cells in 1.25-10% serum ([3]; 5-10 μg/mL EM164): 30-50% | Inhibition by EM164 antibody of IGF-I-stimulated growth in serum-free medium [3, 9]: 85% | binding to IGF-I receptor (immunoprecipitation) [4]: did not bind | binding to IGF-I receptor (immunoprecipitation) [5]: also bound | Inhibition by EM164 antibody of IGF-I-stimulated growth in serum-free medium (SK-LU-1 cells; [9]): 100% | % Inhibition by EM164 antibody of Growth/survival of cells in 1.25-10% serum (SK-LU-1 cells; [10]): No | Inhibition by EM164 antibody of IGF-I-stimulated growth in serum-free medium [6, 9]: 85-100% | % Inhibition by EM164 antibody of Growth/survival of cells in 1.25-10% serum [6, 10]: Yes | binding to IGF-I receptor (immunoprecipitation) [7]: did not bind | inhibition of the IGF-I stimulated autophosphorylation of IGF-I receptor (IGF-I receptor): complete inhibition | intracellular IGF-I receptor signaling (Akt and Erk1/2): almost completely inhibited | activation of Akt and Erk1/2 (Akt and Erk1/2; IGF-I stimulated): inhibited in a dose-dependent manner | Inhibition by EM164 antibody of IGF-I-stimulated growth in serum-free medium (A 431 (epidermoid) cells; [9]): 85% | % Inhibition by EM164 antibody of Growth/survival of cells in 1.25-10% serum (A 431 (epidermoid) cells; [10]): Yes | decrease in the bound biotin-IGF-I [8]: 80% | Inhibition by EM164 antibody of IGF-I-stimulated growth in serum-free medium (A 549 cells): 80%
